# Patent US20260115256A1 (HANGZHOU SCIWIND BIOSCIENCES, published 2026)
# *1 amine or outer side, *2 acyl side, *3 side chain or, on linkers, in order; H or OH if unused. Bridges are numbered along the chain shown (N, C = ends). Where no end group is shown, it is not given here. Side-chain parts run from the residue outwards. [ ]: non-standard residue; d: D form. The star is where a group is joined. C20 diacid = O=C(O)CCCCCCCCCCCCCCCCCCC(=O)*; C18 diacid = O=C(O)CCCCCCCCCCCCCCCCC(=O)*; γGlu = O=C(O)[C@H](CCC(=O)[*:2])N[*:1]; Hyp = O=C(O)[C@@H]1C[C@@H](O)CN1; hArg = N=C(N)NCCCC[C@H](N)C(=O)O; AEEA = NCCOCCOCC(=O)O
# Biological target: T1, human amylin receptor (AMY3) on CHO-K1/Ga15/AMY3 cells (human, UniProt P30988 25-474; O60896 24-148)
# T1 sequence (looked up) 1: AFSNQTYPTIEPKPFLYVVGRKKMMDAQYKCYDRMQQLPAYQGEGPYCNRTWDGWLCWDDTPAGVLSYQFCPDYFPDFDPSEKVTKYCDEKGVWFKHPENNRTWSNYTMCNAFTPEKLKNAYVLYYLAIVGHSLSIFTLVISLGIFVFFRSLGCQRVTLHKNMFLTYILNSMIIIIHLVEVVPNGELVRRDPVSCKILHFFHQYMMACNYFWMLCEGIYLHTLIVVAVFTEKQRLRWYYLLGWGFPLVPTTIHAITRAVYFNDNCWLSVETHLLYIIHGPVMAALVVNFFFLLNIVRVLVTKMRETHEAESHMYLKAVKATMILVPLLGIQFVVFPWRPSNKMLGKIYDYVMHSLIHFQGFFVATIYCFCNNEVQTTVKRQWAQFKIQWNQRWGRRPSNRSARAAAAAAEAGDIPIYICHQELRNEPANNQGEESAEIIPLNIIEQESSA
# T1 sequence (looked up) 2: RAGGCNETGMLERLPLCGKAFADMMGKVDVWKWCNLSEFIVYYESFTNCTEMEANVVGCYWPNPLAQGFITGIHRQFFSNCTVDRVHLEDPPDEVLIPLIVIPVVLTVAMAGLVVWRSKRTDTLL
# Test: cell-based or functional assay
binder,measurement,value
HCNTATCATQRLADFLRHSSNNLK([γGlu-C20 diacid])PILPPTNVGSNT[Hyp]-NH2 (disulfide 2-7 (inferred)) [PD078],"EC50, CRE-luciferase assay",0.035 nM
RCNTATCATQRLADFLRHSSNNK([AEEA-AEEA-γGlu-C20 diacid])GPILPPTNVGSNT[Hyp]-NH2 (disulfide 2-7 (inferred)) [PD083],"EC50, CRE-luciferase assay",0.037 nM
RCNTATCATQRLADFLRHSSK([γGlu-C18 diacid])NLGPILPPTNVGSNT[Hyp]-NH2 (disulfide 2-7 (inferred)) [PD092],"EC50, CRE-luciferase assay",0.016 nM
RCNTATCATQRLADFLRHSSNNLGK([γGlu-C18 diacid])ILPPTNVGSNT[Hyp]-NH2 (disulfide 2-7 (inferred)) [PD104],"EC50, CRE-luciferase assay",0.011 nM
RCNTATCATQRLADFLRHSSNNK([γGlu-C18 diacid])GPILPPTNVGSNT[Hyp]-NH2 (disulfide 2-7 (inferred)) [PD084],"EC50, CRE-luciferase assay",0.008 nM
RCNTATCATQRLADFLRHK([AEEA-AEEA-γGlu-C18 diacid])SNNLGPILPPTNVGSNT[Hyp]-NH2 (disulfide 2-7 (inferred)) [PD101],"EC50, CRE-luciferase assay",0.012 nM
[hArg]CNTATCATQRLADFLRHSSNNLK([γGlu-C20 diacid])PILPPTNVGSNT[Hyp]-NH2 (disulfide 2-7 (inferred)) [PD077],"EC50, CRE-luciferase assay",0.034 nM
RCNTATCATQRLADFLRHSSNNLGK([AEEA-AEEA-γGlu-C18 diacid])ILPPTNVGSNT[Hyp]-NH2 (disulfide 2-7 (inferred)) [PD105],"EC50, CRE-luciferase assay",0.033 nM
ECNTATCATQRLADFLRHSSNNLK([γGlu-C20 diacid])PILPPTNVGSNT[Hyp]-NH2 (disulfide 2-7 (inferred)) [PD080],"EC50, CRE-luciferase assay",0.11 nM
RCNTATCATQRLADFLRHSK([γGlu-C18 diacid])NNLGPILPPTNVGSNT[Hyp]-NH2 (disulfide 2-7 (inferred)) [PD096],"EC50, CRE-luciferase assay",0.042 nM
RCNTATCATQRLADFLRHSSNNK([γGlu-C20 diacid])GPILPPTNVGSNT[Hyp]-NH2 (disulfide 2-7 (inferred)) [PD082],"EC50, CRE-luciferase assay",0.038 nM
RCNTATCATQRLADFLRHK([γGlu-C18 diacid])SNNLGPILPPTNVGSNT[Hyp]-NH2 (disulfide 2-7 (inferred)) [PD100],"EC50, CRE-luciferase assay",0.06 nM
RCNTATCATQRLAEFLRHSSNNK([γGlu-C20 diacid])GPILPPTNVGSNTP-NH2 (disulfide 2-7 (inferred)) [PD008],"EC50, CRE-luciferase assay",0.281 nM
KCNTATCATQRLADFLRHSSNNLK([γGlu-C20 diacid])PILPPTNVGSNT[Hyp]-NH2 (disulfide 2-7 (inferred)) [PD076],"EC50, CRE-luciferase assay",0.04 nM
RCNTATCATQRLADFLRHSSNK([γGlu-C20 diacid])LGPILPPTNVGSNT[Hyp]-NH2 (disulfide 2-7 (inferred)) [PD086],"EC50, CRE-luciferase assay",0.033 nM
RCNTATCATQRLADFLRHSSNK([γGlu-C18 diacid])LGPILPPTNVGSNT[Hyp]-NH2 (disulfide 2-7 (inferred)) [PD088],"EC50, CRE-luciferase assay",0.013 nM
RCNTATCATQRLADFLRHSSNK([AEEA-AEEA-γGlu-C20 diacid])LGPILPPTNVGSNT[Hyp]-NH2 (disulfide 2-7 (inferred)) [PD087],"EC50, CRE-luciferase assay",0.032 nM
RCNTATCATQRLADFLRHSSNNLGK([γGlu-C20 diacid])ILPPTNVGSNT[Hyp]-NH2 (disulfide 2-7 (inferred)) [PD102],"EC50, CRE-luciferase assay",0.033 nM
RCNTATCATQRLADFLRHK([AEEA-AEEA-γGlu-C20 diacid])SNNLGPILPPTNVGSNT[Hyp]-NH2 (disulfide 2-7 (inferred)) [PD099],"EC50, CRE-luciferase assay",0.033 nM
RCNTATCATQRLADFLRHSSK([AEEA-AEEA-γGlu-C20 diacid])NLGPILPPTNVGSNT[Hyp]-NH2 (disulfide 2-7 (inferred)) [PD091],"EC50, CRE-luciferase assay",0.03 nM
DCNTATCATQRLADFLRHSSNNLK([γGlu-C20 diacid])PILPPTNVGSNT[Hyp]-NH2 (disulfide 2-7 (inferred)) [PD079],"EC50, CRE-luciferase assay",0.131 nM
RCNTATCATQRLADFLRHSSNNLK([AEEA-AEEA-γGlu-C20 diacid])PILPPTNVGSNT[Hyp]-NH2 (disulfide 2-7 (inferred)) [PD081],"EC50, CRE-luciferase assay",0.031 nM
RCNTATCATQRLADFLRHSSNK([AEEA-AEEA-γGlu-C18 diacid])LGPILPPTNVGSNT[Hyp]-NH2 (disulfide 2-7 (inferred)) [PD089],"EC50, CRE-luciferase assay",0.018 nM
RCNTATCATQRLADFLRHSSNNLK([AEEA-γGlu-C20 diacid])PILPPTNVGSNT[Hyp]-NH2 (disulfide 2-7 (inferred)) [PD106],"EC50, CRE-luciferase assay",0.026 nM
RCNTATCATQRLADFLRHSSNNLGK([AEEA-AEEA-γGlu-C20 diacid])ILPPTNVGSNT[Hyp]-NH2 (disulfide 2-7 (inferred)) [PD103],"EC50, CRE-luciferase assay",0.033 nM
RCNTATCATQRLADFLRHSSK([γGlu-C20 diacid])NLGPILPPTNVGSNT[Hyp]-NH2 (disulfide 2-7 (inferred)) [PD090],"EC50, CRE-luciferase assay",0.031 nM
RCNTATCATQRLAEFLRHSSNK([γGlu-C20 diacid])LGPILPPTNVGSNTP-NH2 (disulfide 2-7 (inferred)) [PD007],"EC50, CRE-luciferase assay",0.205 nM
RCNTATCATQRLADFLRHSSK([AEEA-AEEA-γGlu-C18 diacid])NLGPILPPTNVGSNT[Hyp]-NH2 (disulfide 2-7 (inferred)) [PD093],"EC50, CRE-luciferase assay",0.019 nM
RCNTATCATQRLADFLRHSK([AEEA-AEEA-γGlu-C20 diacid])NNLGPILPPTNVGSNT[Hyp]-NH2 (disulfide 2-7 (inferred)) [PD095],"EC50, CRE-luciferase assay",0.047 nM
RCNTATCATQRLADFLRHSK([γGlu-C20 diacid])NNLGPILPPTNVGSNT[Hyp]-NH2 (disulfide 2-7 (inferred)) [PD094],"EC50, CRE-luciferase assay",0.034 nM
RCNTATCATQRLADFLRHSK([AEEA-AEEA-γGlu-C18 diacid])NNLGPILPPTNVGSNT[Hyp]-NH2 (disulfide 2-7 (inferred)) [PD097],"EC50, CRE-luciferase assay",0.014 nM
RCNTATCATQRLADFLRHK([γGlu-C20 diacid])SNNLGPILPPTNVGSNT[Hyp]-NH2 (disulfide 2-7 (inferred)) [PD098],"EC50, CRE-luciferase assay",0.077 nM
RCNTATCATQRLAEFLRHSSK([γGlu-C20 diacid])NLGPILPPTNVGSNTP-NH2 (disulfide 2-7 (inferred)) [PD006],"EC50, CRE-luciferase assay",0.129 nM
RCNTATCATQRLADFLRHSSNNK([AEEA-AEEA-γGlu-C18 diacid])GPILPPTNVGSNT[Hyp]-NH2 (disulfide 2-7 (inferred)) [PD085],"EC50, CRE-luciferase assay",0.005 nM
